# Experimental data published in IntAct's records for PubMed 21718540.
# B1: TGF-beta receptor type-1 (Mus musculus), Q64729 (parent)
# chain: MEAAAAAPRRPQLLIVLVAAATLLPGAKALQCFCHLCTKDNFTCETDGLCFVSVTETTDKVIHNSMCIAEIDLIPRDRPFVCAPSSKTGAVTTTYCCNQDHCNKIELPTTGPFSEKQSAGLGPVELAAVIAGPVCFVCIALMLMVYICHNRTVIHHRVPNEEDPSLDRPFISEGTTLKDLIYDMTTSGSGSGLPLLVQRTIARTIVLQESIGKGRFGEVWRGKWRGEEVAVKIFSSREERSWFREAEIYQTVMLRHENILGFIAADNKDNGTWTQLWLVSDYHEHGSLFDYLNRYTVTVEGMIKLALSTASGLAHLHMEIVGTQGKPAIAHRDLKSKNILVKKNGTCCIADLGLAVRHDSATDTIDIAPNHRVGTKRYMAPEVLDDSINMKHFESFKRADIYAMGLVFWEIARRCSIGGIHEDYQLPYYDLVPSDPSVEEMRKVVCEQKLRPNIPNRWQSCEALRVMAKIMRECWYANGAARLTALRIKKTLSQLSQQEGIKM
# partner: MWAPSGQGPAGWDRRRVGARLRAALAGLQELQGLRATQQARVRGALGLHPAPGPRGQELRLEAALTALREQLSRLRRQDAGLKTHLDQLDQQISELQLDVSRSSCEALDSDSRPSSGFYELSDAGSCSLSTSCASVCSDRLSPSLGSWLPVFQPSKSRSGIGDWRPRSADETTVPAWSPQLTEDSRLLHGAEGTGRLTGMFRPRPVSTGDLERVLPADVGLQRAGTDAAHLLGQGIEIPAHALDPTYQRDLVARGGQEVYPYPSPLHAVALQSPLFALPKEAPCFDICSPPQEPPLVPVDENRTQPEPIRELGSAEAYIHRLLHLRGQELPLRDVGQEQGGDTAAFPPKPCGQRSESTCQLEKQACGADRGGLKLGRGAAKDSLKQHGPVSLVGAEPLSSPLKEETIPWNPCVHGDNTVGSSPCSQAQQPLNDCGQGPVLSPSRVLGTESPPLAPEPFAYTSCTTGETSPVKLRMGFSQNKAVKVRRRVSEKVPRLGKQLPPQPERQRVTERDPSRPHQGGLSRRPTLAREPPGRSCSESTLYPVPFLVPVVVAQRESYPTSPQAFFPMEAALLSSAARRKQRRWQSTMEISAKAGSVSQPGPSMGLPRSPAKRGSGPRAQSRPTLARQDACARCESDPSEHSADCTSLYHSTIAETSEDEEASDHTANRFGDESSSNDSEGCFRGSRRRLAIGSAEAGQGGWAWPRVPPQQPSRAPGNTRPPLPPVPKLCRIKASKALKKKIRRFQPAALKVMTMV
# Variants of: B1
# Settings: with dact2_mouse Dact2, Q7TN08
row,effect of a mutation on the interaction,Variant
1,decreasing interaction,T204D
